According to US20110262445A1 (CEPHALON AUSTRALIA, published 2011):
Positions count from the first letter of the chain named. Numbers in names are those of the source. Values belong to the binder of their own block, whether it stands above or below them.

Columns and labels:
[1] = target: T1, IL-23R extracellular domain (human, UniProt Q5VWK5 24-355); assay: ELISA, IL-23R coated
T1 construct: Methods print IL-23/Fc Chimera for the coated receptor; also called IL-23R-HIS; IL-23/Fc Chimera (so in the source); not shown: Fc (R&D Systems chimera) or HIS tag (in-house IL-23R-HIS)
T1 sequence: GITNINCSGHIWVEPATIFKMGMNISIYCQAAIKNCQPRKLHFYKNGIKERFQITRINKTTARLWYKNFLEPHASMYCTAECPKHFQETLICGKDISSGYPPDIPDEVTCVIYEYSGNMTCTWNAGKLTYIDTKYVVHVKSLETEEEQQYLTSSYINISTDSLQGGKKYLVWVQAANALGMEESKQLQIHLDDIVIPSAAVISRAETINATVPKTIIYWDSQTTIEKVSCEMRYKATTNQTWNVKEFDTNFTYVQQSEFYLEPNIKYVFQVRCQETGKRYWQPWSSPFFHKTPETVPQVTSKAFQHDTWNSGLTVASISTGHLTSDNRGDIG
Experimental: (§1) The plate was then washed three times with wash buffer. The wells were then blocked by adding 200 μl of blocking buffer to each well and incubating the plate at 25° C. for 1 hour. The supernatant was diluted in antibody diluent sufficient to generate a titration curve and 100 µl was added to wells then incubated for 1 hour at 25° C. The plate was then washed as previously described and 100 μl of Monoclonal Anti-FLAG® M2-HRP (Sigma-Aldrich®) at 1:1000 in antibody diluent was used to detect bound cytokine. After incubation at 25° C. for 1 hour the plate was washed again as previously described. 100 μl TMB substrate solution (Sigma-Aldrich®) was added to each well and the colour allowed to develop for 5 minutes. 100 μl of 1M HCl was added to terminate the colour development reaction and absorbance was determined at 450 nm (ref. 620 nm).

[2] = target: T2, IL-12Rβ1/Fc Chimera (human, UniProt P42701 25-545); assay: ELISA, IL-12Rβ1 coated
T2 construct: not shown: Fc of the bought R&D Systems chimera
Experimental: as §1

binding result [1]: binds | binding result [2]: binds
B1: IL-23 mutant D265A (ligand)
chain: IWELKKDVYVVELDWYPDAPGEMVVLTCDTPEEDGITWTLDQSSEVLGSGKTLTIQVKEFGDAGQYTCHKGGEVLSHSLLLLHKKEDGIWSTDILKDQKEPKNKTFLRCEAKNYSGRFTCWWLTTISTDLTFSVKSSRGSSDPQGVTCGAATLSAERVRGDNKEYEYSVECQEDSACPAAEESLPIEVMVDAVHKLKYENYTSSFFIRDIIKPDPPKNLQLKPLKNSRQVEVSWEYPDTWSTPHSYFSLTFCVQVQGKSKREKKARVFTDKTSATVICRKNASISVRAQDRYYSSSWSEWASVPCSGSGSSRGGSGSGGSGGGGSKLRAVPGGSSPAWTQCQQLSQKLCTLAWSAHPLVGHMDLREEGDEETTNDVPHIQCGDGCDPQGLRDNSQFCLQRIHQGLIFYEKLLGSDIFTGEPSLLPDSPVGQLHASLLGLSQLLQPEGHHWETQQIPSLSPSQPWQRLLLRFKILRSLQAFVAVAARVFAHGAATLSP

binding result [1]: binds | binding result [2]: binds
B2: IL-23 mutant R266A (ligand)
chain: B1 chain with A265D, R266A
